Article PMC3155546 (PLoS ONE, 2011)

Target: T1, GST-TPPP1–219 (human, UniProt O94811 1-219)
T1 construct: also called GST-TPPP(FL); full-length TPPP
Test: co-IP
Conditions: both partners purified

T1 sequence (O94811 whole entry): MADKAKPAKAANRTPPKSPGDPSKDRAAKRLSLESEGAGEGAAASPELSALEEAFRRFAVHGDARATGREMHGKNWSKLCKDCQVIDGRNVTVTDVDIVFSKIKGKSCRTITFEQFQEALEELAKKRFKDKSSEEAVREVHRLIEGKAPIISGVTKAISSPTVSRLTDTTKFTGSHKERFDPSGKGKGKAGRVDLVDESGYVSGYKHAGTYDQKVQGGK

## KTNMKHMAGAAAAGAVVGGLG (domain or fragment) [GST-PrP106–126]
  binding result: binds
